{"source": "patent US7557190", "biological_target": "T1, Ep-CAM/Fc (recombinant human) (human, UniProt P16422)", "T1 chain": "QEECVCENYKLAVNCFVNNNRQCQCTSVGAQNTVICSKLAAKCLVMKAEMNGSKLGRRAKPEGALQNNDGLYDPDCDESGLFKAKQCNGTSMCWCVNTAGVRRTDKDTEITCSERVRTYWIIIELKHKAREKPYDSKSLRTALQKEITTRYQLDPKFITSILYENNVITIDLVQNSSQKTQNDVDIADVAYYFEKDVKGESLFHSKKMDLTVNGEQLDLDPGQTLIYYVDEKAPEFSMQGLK", "assay": "SPR", "data": [{"binder": "H3.77/L3 (humanized 17-1A) (antibody, V domains shown) VH: EVQLVESGGGLVQPGGSLRLSCAASGYSFTNYLIEWVRQAPGQGLEWMGVINPGSGGTNYNPSLKSRVTISADKSISTAYMELSSLRSEDTAVYFCARDGPWFAYWGQGTLVTVSS VL: NIVMTQSPDSLAVSLGERATLSCRASENVVTYVSWYQQKPGQSPQLLIYGASNRYTGVPDRFTGSGSATDFTLTINSLEAEDAATYYCGQGYSYPYTFGGGTKLEIK", "values": [{"measurement": "Kd", "result": 0.0649, "unit": "µM"}]}]}
